Test results taken from the supplement of paper PMC7877785.
± gives the uncertainty stated by the source.

Assay: self-splicing fitness, log relative to wild type (ln ratio); higher = more splicing; Tetrahymena group I intron in knt gene, E. coli kanamycin selection, DiMSum; sequences stand for … in CUCUCU…GGAGGGAAAAGUUAUCAGGCAUGCACCUGGUAGCUAGUCUUUAAACCAAUAGAUUGCAUCGGUUUAAAAGGCAAGACCGUCAAAUUGCGGGAAAGGGGUCAACAGCCGUUCAGUACCAAGUCUCAGGGGAAACUUUGAGAUGGCCUUGCAAAGGGUAUGGUAAUAAGCUGACGGACAUGGUCCUAACCACGCAGCCAAGUCCUAAGUCAACAGAUCUUCUGUUGAUAUGGAUGCAGUUCACAGACUAAAUGUCGGUCGGGGAAGAUGUAUUCUUCUCAUAAGAUAUAGUCGGACCUCUCCUUAAUGGGAGCUAGCGGAUGAAGUGAUGCAACACUGGAGCCGCUGGGAACUAAUUUGUAUGCGAAAGUAUAUUGAUUAGUUUUGGAGUACUCGUGGUCG
Method in brief: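 Pooled colonies went to amplicon sequencing on an Illumina HiSeq 2500 after six replicate transformations. The plates were LB agar with 100 μg/mL carbenicillin, 50 μM IPTG and 0.2% rhamnose, with or without 25 μg/mL kanamycin, incubated overnight at 37°C or 30°C. The E. coli BL21(DE3) library had all eight P1ex-region intron nucleotides randomised, the intron placed in the knt kanamycin-resistance gene on pET-22b(+). DiMSum fitness is the error-weighted combination of replicate fold changes, kanamycin against none, normalised to wild type.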

| Sequence | self-splicing fitness (ln) (30 °C) | self-splicing fitness (ln) (37 °C) |
| --- | --- | --- |
| UUAAAGCAAUAUUACGAGAU | -3.41 ± 0.21 | -2.19 ± 0.21 |
| UUAAAGCAAUAUUACGCAAU | -2.44 ± 0.15 | -1.42 ± 0.17 |
| UUAAAGCAAUAUUACGCACC | -0.965 ± 0.33 | -0.676 ± 0.44 |
| UUAAAGCAAUAUUACGCAUC | -1.88 ± 0.17 | -1.39 ± 0.34 |
| UUAAAGCAAUAUUACGCCCG | -0.0363 ± 0.09 | 0.273 ± 0.11 |
| UUAAAGCAAUAUUACGCGAA | -0.169 ± 0.15 | 0.0649 ± 0.18 |
| UUAAAGCAAUAUUACGCGAU | -3.01 ± 0.24 | -0.953 ± 0.17 |
| UUAAAGCAAUAUUACGCGUC | -1.08 ± 0.11 | -1.66 ± 0.16 |
| UUAAAGCAAUAUUACGCUGU | -1.31 ± 0.16 | -1.68 ± 0.2 |
| UUAAAGCAAUAUUACGGGUG | 0.148 ± 0.069 | 0.271 ± 0.098 |
| UUAAAGCAAUAUUACGGUCA | 0.199 ± 0.071 | 0.479 ± 0.11 |
| UUAAAGCAAUAUUACGGUGC | -4.36 ± 0.42 | -2.14 ± 0.34 |
| UUAAAGCAAUAUUACGGUGG | -0.511 ± 0.079 | 0.0701 ± 0.1 |
| UUAAAGCAAUAUUACGUACU | -0.208 ± 0.079 | -0.142 ± 0.099 |
| UUAAAGCAAUAUUACGUGGG | -1.65 ± 0.1 | -2.03 ± 0.17 |
| UUAAAGCAAUAUUACGUUCA | 0.284 ± 0.087 | 0.233 ± 0.12 |
| UUAAAGCAAUAUUACGUUCG | 0.19 ± 0.084 | -0.157 ± 0.096 |
| UUACAGCAAUAUUACGACCA | -0.658 ± 0.14 | -0.854 ± 0.18 |
| UUACAGCAAUAUUACGACCC | -2.6 ± 0.32 | -2.14 ± 0.44 |
| UUACAGCAAUAUUACGAGUC | -4.54 ± 0.3 | -2.84 ± 0.26 |
| UUACAGCAAUAUUACGAGUG | -1.16 ± 0.069 | -0.895 ± 0.079 |
| UUACAGCAAUAUUACGAUCG | -0.32 ± 0.09 | -0.268 ± 0.11 |
| UUACAGCAAUAUUACGCGAA | -1.02 ± 0.12 | -0.94 ± 0.11 |
| UUACAGCAAUAUUACGCGGU | -2.9 ± 0.12 | -3.15 ± 0.24 |

| Sequence | self-splicing fitness (ln) (30 °C) | self-splicing fitness (ln) (37 °C) |
| --- | --- | --- |
| UUACAGCAAUAUUACGCUAA | -2.01 ± 0.13 | -0.87 ± 0.11 |
| UUACAGCAAUAUUACGCUAC | -3.71 ± 0.22 | -1.96 ± 0.24 |
| UUACAGCAAUAUUACGCUGA | -3.22 ± 0.17 | -2.55 ± 0.19 |
| UUACAGCAAUAUUACGGCAC | -1.77 ± 0.17 | -2.26 ± 0.18 |
| UUACAGCAAUAUUACGGCAG | -0.142 ± 0.077 | 0.248 ± 0.11 |
| UUACAGCAAUAUUACGGGCA | -1.01 ± 0.1 | -0.657 ± 0.11 |
| UUACAGCAAUAUUACGGGUA | -1.94 ± 0.097 | -0.854 ± 0.087 |
| UUACAGCAAUAUUACGGUGG | -1.08 ± 0.087 | -0.457 ± 0.1 |
| UUACAGCAAUAUUACGUAUC | -3.33 ± 0.19 | -3.28 ± 0.24 |
| UUACAGCAAUAUUACGUCAC |  | -1.8 ± 0.23 |
| UUACAGCAAUAUUACGUCCC | -3.48 ± 0.24 | -1.31 ± 0.25 |
| UUACAGCAAUAUUACGUCCU | -2.11 ± 0.1 | -0.74 ± 0.089 |
| UUACAGCAAUAUUACGUCGC | -2.92 ± 0.17 | -2.55 ± 0.18 |
| UUACAGCAAUAUUACGUCUA | -0.0634 ± 0.086 | -0.0325 ± 0.079 |
| UUACAGCAAUAUUACGUCUG | -1.59 ± 0.13 | -1.07 ± 0.12 |
| UUACAGCAAUAUUACGUGAU | -4.22 ± 0.19 | -2.37 ± 0.17 |
| UUACAGCAAUAUUACGUGCG | -0.895 ± 0.092 | -0.0854 ± 0.12 |
| UUACAGCAAUAUUACGUUGC | -3.56 ± 0.37 | -2.37 ± 0.26 |
| UUAGAGCAAUAUUACGAAAC | -2.21 ± 0.41 |  |
| UUAGAGCAAUAUUACGACAG | -0.55 ± 0.082 | -0.391 ± 0.1 |
| UUAGAGCAAUAUUACGAUGG | -1.02 ± 0.15 | 0.108 ± 0.19 |
| UUAGAGCAAUAUUACGCAGC | -3.08 ± 0.35 |  |
| UUAGAGCAAUAUUACGCCCG | -1.21 ± 0.11 | -0.643 ± 0.19 |
| UUAGAGCAAUAUUACGGAAA | -2.59 ± 0.19 | -1.72 ± 0.23 |

| Sequence | self-splicing fitness (ln) (30 °C) | self-splicing fitness (ln) (37 °C) |
| --- | --- | --- |
| UUAGAGCAAUAUUACGGGAU | -3.45 ± 0.39 | -2.97 ± 0.4 |
| UUAGAGCAAUAUUACGGUGC | -3.76 ± 0.28 | -2.11 ± 0.36 |
| UUAGAGCAAUAUUACGUAAG | -2.23 ± 0.097 | -1.2 ± 0.1 |
| UUAGAGCAAUAUUACGUCCU | -1.36 ± 0.21 | -1.87 ± 0.31 |
| UUAGAGCAAUAUUACGUUAC |  | -2.17 ± 0.46 |
| UUAGAGCAAUAUUACGUUGG | -1.89 ± 0.1 | -1.59 ± 0.14 |
| UUAGAGCAAUAUUACGUUUA | -2.01 ± 0.13 | -0.913 ± 0.15 |
| UUAGAGCAAUAUUACGUUUG | -2.04 ± 0.11 | -1.05 ± 0.14 |
| UUAUAGCAAUAUUACGAAAU | -3.75 ± 0.34 | -1.34 ± 0.3 |
| UUAUAGCAAUAUUACGAACG | -0.792 ± 0.17 | -0.293 ± 0.21 |
| UUAUAGCAAUAUUACGACGU | -3.45 ± 0.25 | -1.14 ± 0.16 |
| UUAUAGCAAUAUUACGAGGA | -2.68 ± 0.3 | -1.01 ± 0.23 |
| UUAUAGCAAUAUUACGAUCA | -0.672 ± 0.15 | -0.403 ± 0.17 |
| UUAUAGCAAUAUUACGAUGU | -2.57 ± 0.2 | -1.57 ± 0.23 |
| UUAUAGCAAUAUUACGAUUA | -0.871 ± 0.11 | -0.272 ± 0.13 |
| UUAUAGCAAUAUUACGCAUG | -1.67 ± 0.25 | -0.364 ± 0.23 |
| UUAUAGCAAUAUUACGCGAA | -1.97 ± 0.2 | -1.53 ± 0.34 |
| UUAUAGCAAUAUUACGCGCU | -2.25 ± 0.14 | -1.55 ± 0.13 |
| UUAUAGCAAUAUUACGCGGU | -3.14 ± 0.28 | -1.64 ± 0.28 |
| UUAUAGCAAUAUUACGGAGU | -3.38 ± 0.32 | -2.15 ± 0.3 |
| UUAUAGCAAUAUUACGGCGG | -0.333 ± 0.16 | 0.825 ± 0.2 |
| UUAUAGCAAUAUUACGGGAU | -2.78 ± 0.39 | -3.5 ± 0.42 |
| UUAUAGCAAUAUUACGGGCU | -2 ± 0.33 | -1.3 ± 0.22 |
| UUAUAGCAAUAUUACGUAAU | -3.23 ± 0.31 | -2.11 ± 0.36 |

| Sequence | self-splicing fitness (ln) (30 °C) | self-splicing fitness (ln) (37 °C) |
| --- | --- | --- |
| UUAUAGCAAUAUUACGUGUC | -4.44 ± 0.36 | -2.71 ± 0.26 |
| UUAUAGCAAUAUUACGUUUG | -2.12 ± 0.15 | -1.14 ± 0.18 |
| UUCAAGCAAUAUUACGAACU | -2.74 ± 0.27 | -1.62 ± 0.25 |
| UUCAAGCAAUAUUACGACAG | -1.5 ± 0.11 | -1.1 ± 0.095 |
| UUCAAGCAAUAUUACGAGAC | -3.86 ± 0.23 | -2.23 ± 0.19 |
| UUCAAGCAAUAUUACGAGAG | -1.5 ± 0.11 | -1.34 ± 0.11 |
| UUCAAGCAAUAUUACGAUCG | -1.26 ± 0.1 | -2.3 ± 0.2 |
| UUCAAGCAAUAUUACGAUUG | -3.63 ± 0.35 | -2.24 ± 0.27 |
| UUCAAGCAAUAUUACGCGAC | -2.61 ± 0.24 | -1.91 ± 0.2 |
| UUCAAGCAAUAUUACGCGCG | -1.39 ± 0.082 | -0.634 ± 0.13 |
| UUCAAGCAAUAUUACGCUAA | -1.35 ± 0.2 | -0.551 ± 0.19 |
| UUCAAGCAAUAUUACGCUCG | -3.13 ± 0.33 | -2.15 ± 0.2 |
| UUCAAGCAAUAUUACGGAGG | -4.04 ± 0.27 | -2.58 ± 0.19 |
| UUCAAGCAAUAUUACGGAUA | -1.18 ± 0.14 | -0.384 ± 0.12 |
| UUCAAGCAAUAUUACGGCAC | -2.66 ± 0.4 | -1.11 ± 0.33 |
| UUCAAGCAAUAUUACGGCCA | -1.31 ± 0.13 | -0.977 ± 0.13 |
| UUCAAGCAAUAUUACGGCGA | 0.0413 ± 0.081 | 0.263 ± 0.11 |
| UUCAAGCAAUAUUACGGCUC | -1.68 ± 0.17 | -0.923 ± 0.23 |
| UUCAAGCAAUAUUACGGGCA | -0.666 ± 0.11 | 0.111 ± 0.1 |
| UUCAAGCAAUAUUACGGGGA | -1.49 ± 0.1 | -0.885 ± 0.1 |
| UUCAAGCAAUAUUACGGUAU | -2.84 ± 0.11 | -1.64 ± 0.11 |
| UUCAAGCAAUAUUACGGUGC | -2.77 ± 0.42 | -0.868 ± 0.3 |
| UUCAAGCAAUAUUACGGUUC | -4.02 ± 0.32 | -2.78 ± 0.48 |
| UUCAAGCAAUAUUACGUAGU | -3.6 ± 0.22 | -1.61 ± 0.2 |
